What was measured:
[1] = target: Cry2–mCh–DAT, optogenetic fusion chimera of cryptochrome 2 and DAT with an mCherry fluorescent reporter (Arabidopsis | not stated) (UniProt Q01959)
[2] = target: Cry2–mCh–DAT, optogenetic fusion chimera of cryptochrome 2 and DAT with an mCherry fluorescent reporter (Arabidopsis | not stated) (UniProt Q01959); assay: cell-surface biotinylation, SDS-PAGE and Western blot; HEK293 cells transfected with Cry2–DAT, kept in the dark (control); sulfo-NHS-SS-biotin at 4 °C, NeutrAvidin beads, 4–15% gradient gel
[3] = target: the molecule itself; assay: cross-linking; as a1, but cells treated with 10 μM DA for 0.5, 2, 10, 30 or 60 min before copper phenanthroline cross-linking
[4] = target: the molecule itself; assay: cross-linking; HEK293 cells stably expressing YFP–DAT, vehicle control; copper phenanthroline (100 μM CuSO4, 400 μM 1,10-phenanthroline) in PBS 10 min at RT, NEM quench, membrane enrichment (Mem-PER Plus), samples not heated, Western blot
[5] = target: the molecule itself; assay: cross-linking; as a1, but cells treated with 10 μM METH for 0.5, 2, 10, 30 or 60 min before copper phenanthroline cross-linking

IDT307 uptake in differentiated SH-SY5Y cells expressing Cry2–DAT, blue light against no blue light [1] [fold] | stoichiometry N [2] | Molecule | stoichiometry N [3] | stoichiometry N [4] | stoichiometry N [5]
2.5 | 2 | Cry2–mCh–DAT, optogenetic fusion chimera of cryptochrome 2 and DAT with an mCherry fluorescent reporter (from UniProt Q01959 1-620) | – | – | –
– | – | YFP–DAT (dopamine transporter with N-terminal YFP) (natural protein, UniProt Q01959 1-620, looked up, dopamine transporter (DAT); also called YFPsynDAT; source: HEK293 cells stably expressing YFP–DAT, in or on cells; not shown: YFP, N-terminal, kept) MSKSKCSVGLMSSVVAPAKEPNAVGPKEVELILVKEQNGVQLTSSTLTNPRQSPVEAQDRETWGKKIDFLLSVIGFAVDLANVWRFPYLCYKNGGGAFLVPYLLFMVIAGMPLFYMELALGQFNREGAAGVWKICPILKGVGFTVILISLYVGFFYNVIIAWALHYLFSSFTTELPWIHCNNSWNSPNCSDAHPGDSSGDSSGLNDTFGTTPAAEYFERGVLHLHQSHGIDDLGPPRWQLTACLVLVIVLLYFSLWKGVKTSGKVVWITATMPYVVLTALLLRGVTLPGAIDGIRAYLSVDFYRLCEASVWIDAATQVCFSLGVGFGVLIAFSSYNKFTNNCYRDAIVTTSINSLTSFSSGFVVFSFLGYMAQKHSVPIGDVAKDGPGLIFIIYPEAIATLPLSSAWAVVFFIMLLTLGIDSAMGGMESVITGLIDEFQLLHRHRELFTLFIVLATFLLSLFCVTNGGIYVFTLLDHFAAGTSILFGVLIEAIGVAWFYGVGQFSDDIQQMTGQRPSLYWRLCWKLVSPCFLLFVVVVSIVTFRPPHYGAYIFPDWANALGWVIATSSMAMVPIYAAYKFCSLPGSFREKLAYAIAPEKDRELVDRGEVRQFTLRHWLKV | 4 | 2 | 3
